Test results published in patent US20200392227A1 (LYVGEN BIOPHARMA, published 2020).
Blank lines part the entries; values can stand above or below the binder they belong to.

Key:
[1] = target: T1, human FcγRIIC expressed on CHO cells (human, UniProt P31995 43-323); test: FACS, CHO cells expressing FcγRIIC
T1 construct: whole, on cells
T1 sequence (looked up): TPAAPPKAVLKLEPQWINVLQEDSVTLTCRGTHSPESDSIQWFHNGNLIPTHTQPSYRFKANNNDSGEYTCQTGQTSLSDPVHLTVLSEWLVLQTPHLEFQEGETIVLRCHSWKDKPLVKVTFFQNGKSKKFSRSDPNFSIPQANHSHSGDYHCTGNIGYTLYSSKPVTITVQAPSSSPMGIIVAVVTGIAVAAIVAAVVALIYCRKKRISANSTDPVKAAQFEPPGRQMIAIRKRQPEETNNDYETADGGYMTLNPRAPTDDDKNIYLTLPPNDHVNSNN
Protocol: FIGS. 1A-1W are charts showing binding activity of various IgG variants as indicated to different types of Fcγ receptors expressed on CHO-K1 cells at the various concentrations as indicated. The concentrations of each IgG variant, from left to right, are 0 μg/ml, 0.3 μg/ml, 1 μg/ml, 3 μg/ml, and 10 μg/ml in FIGS. 1A-1C, 1E-J, 1L-1M, 1P-1R, and 1T-1V. For FIGS. 1D, 1K, 10, 1S, and 1w the bars, from left to right, correspond to the following concentrations of IgG variant: 0.3 μg/ml, 1 μg/ml, 3 μg/ml, and 10 μg/ml.
(§1) For FACS analysis of the IgG mutants' binding to different FcγRs, FcγR overexpressing CHO cells were harvested using trypsin-EDTA and were suspended in cold staining buffer (3% BSA in PBS). Test IgG mutants, which were diluted in staining buffer, were added into the cells. The mixture was incubated 4° C. for 2 hours, and then washed twice with cold staining buffer and re-suspended in PE-labeled anti-human IgG followed by incubation at 4° C. for 2 hours. The mixture was washed twice with staining buffer and re-suspended in 2% PFA in PBS for FACS.

[2] = target: T2, human FcRIIIA-F158 protein (MednaBio, E1036) (human, UniProt P08637 17-208); test: BLI
T2 construct: Bought; also called FcγRIIIA(F)
Protocol: (§2) These IgG mutants were tested for binding to a panel of human Fc receptors (FcRs), including FcRn, using the Octet Red96 System (ForteBio, Model #Red96). Human FcR proteins were purchased commercially (FcRn, MednaBio, E1032; FcRI, MednaBio, E1031; FcRIIA, MednaBio, E1033; FcRIIB/C, MednaBio, E1034; FcRIIIA-F158, MednaBio, E1036; FcRIIIA-V158, MednaBio, E1035; FcRIIIB, MednaBio, E1037). All Fey receptor assays were performed at pH 7.2; all FcRn assays were performed at pH 6. The Fey receptors were loaded onto anti-penta-HIS1K (ForteBio, Cat #18-5122) biosensors at a concentration of 20 μg/mL. The loaded biosensors was then be dipped into an 8-point 1:3 dilution series of the test IgG molecules (including controls and the mutants described herein) in PBS with 0.1% BSA, 0.02% Tween-20 (pH 7.2) at a starting concentration of 300 nM. Kinetic analysis was performed using a 1:1 binding model and global fitting.

[3] = target: T3, human FcRIIIA-V158 protein (MednaBio, E1035) (human, UniProt P08637 17-208); test: BLI
T3 construct: Bought; also called FcγRIIIA(V); FcgRIIIA(V)
Protocol: as §2

[4] = target: T4, human FcRIIA protein (MednaBio, E1033) (human, UniProt P12318 34-218, limits assumed); test: BLI
T4 construct: Bought; also called FcγRIIA
T4 sequence (looked up): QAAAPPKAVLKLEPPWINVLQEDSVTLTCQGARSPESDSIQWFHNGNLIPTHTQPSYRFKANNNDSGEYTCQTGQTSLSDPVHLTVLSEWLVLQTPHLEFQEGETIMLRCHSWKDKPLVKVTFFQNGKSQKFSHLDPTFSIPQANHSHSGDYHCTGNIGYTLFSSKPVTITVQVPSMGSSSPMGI
Protocol: as §2

[5] = target: T5, human FcRn protein (MednaBio, E1032) (human, UniProt P55899 24-297; P61769 21-119); test: BLI
T5 construct: Bought; assays at pH 6
Protocol: as §2

[6] = target: T6, human FcRIIB/C protein (MednaBio, E1034) (human, UniProt P31994 43-217, limits assumed); test: BLI
T6 construct: Bought as FcRIIB/C; also called FcγRIIB; CD32B
T6 sequence (looked up): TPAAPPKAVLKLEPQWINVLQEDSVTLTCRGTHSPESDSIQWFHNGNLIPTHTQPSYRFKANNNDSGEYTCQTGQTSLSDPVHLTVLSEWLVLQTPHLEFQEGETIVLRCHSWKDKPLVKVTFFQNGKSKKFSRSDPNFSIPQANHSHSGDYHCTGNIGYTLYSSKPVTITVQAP
Protocol: as §2

[7] = target: T7, human FcRIIIB protein (MednaBio, E1037) (human, UniProt O75015 17-200); test: BLI
T7 construct: Bought; also called FcγRIIIB; FcgRIIIB
Protocol: as §2

[8] = target: T8, human FcRI protein (MednaBio, E1031) (human, UniProt P12314 16-288, limits assumed); test: BLI
T8 construct: Bought; loaded on anti-penta-HIS biosensors; also called FcγRI
Protocol: as §2

[9] = target: T9, human FcγRI expressed on CHO cells (human, UniProt P12314 16-374); test: FACS, CHO cells expressing FcγRI
T9 construct: whole, on cells
Protocol: as §1

T8 sequence (P12314 16-288 limits assumed): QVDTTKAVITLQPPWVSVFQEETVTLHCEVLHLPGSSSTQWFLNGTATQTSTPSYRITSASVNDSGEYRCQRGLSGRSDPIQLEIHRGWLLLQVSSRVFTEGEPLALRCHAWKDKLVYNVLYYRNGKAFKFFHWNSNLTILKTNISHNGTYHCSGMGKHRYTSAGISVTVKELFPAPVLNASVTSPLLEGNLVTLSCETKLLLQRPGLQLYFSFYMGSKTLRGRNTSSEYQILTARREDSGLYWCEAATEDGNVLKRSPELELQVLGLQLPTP
T3 sequence (P08637 17-208 F176V): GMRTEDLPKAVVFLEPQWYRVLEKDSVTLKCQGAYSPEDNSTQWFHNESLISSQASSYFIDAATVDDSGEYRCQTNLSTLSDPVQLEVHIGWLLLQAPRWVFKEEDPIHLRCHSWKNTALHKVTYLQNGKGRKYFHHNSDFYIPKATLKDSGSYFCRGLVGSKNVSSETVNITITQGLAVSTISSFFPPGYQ
T2 sequence (P08637 17-208 limits assumed): as the sequence (P08637 17-208 F176V) above, with V160F counted along it
T7 sequence (O75015 17-200 limits assumed): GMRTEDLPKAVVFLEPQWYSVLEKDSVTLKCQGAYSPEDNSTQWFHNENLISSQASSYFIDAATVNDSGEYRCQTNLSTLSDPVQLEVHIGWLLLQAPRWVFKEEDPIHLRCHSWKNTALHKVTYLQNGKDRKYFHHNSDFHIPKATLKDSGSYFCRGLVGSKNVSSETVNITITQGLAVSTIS
T9 sequence (P12314 16-374): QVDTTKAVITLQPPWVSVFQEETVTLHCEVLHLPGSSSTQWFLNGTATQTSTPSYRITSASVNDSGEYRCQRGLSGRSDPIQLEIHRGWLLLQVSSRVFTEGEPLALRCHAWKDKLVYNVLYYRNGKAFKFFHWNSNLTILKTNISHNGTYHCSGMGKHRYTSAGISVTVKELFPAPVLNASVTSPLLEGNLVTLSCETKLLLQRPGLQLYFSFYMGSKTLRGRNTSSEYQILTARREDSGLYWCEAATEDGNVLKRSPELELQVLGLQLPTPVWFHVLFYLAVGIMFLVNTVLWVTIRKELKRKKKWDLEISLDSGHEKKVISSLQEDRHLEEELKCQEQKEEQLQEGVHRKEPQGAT

binding result [1]: no binding (tested: 10 ug/ml) | Kd [2]: 300 nM | koff [2]: 0.1 s⁻¹ | kon [2]: 350000 M⁻¹ s⁻¹ | binding result [3]: no binding (tested: 300 nM) | Kd [4]: 440 nM | koff [4]: 0.11 s⁻¹ | kon [4]: 250000 M⁻¹ s⁻¹ | Kd [5]: 11 nM | koff [5]: 0.0078 s⁻¹ | kon [5]: 700000 M⁻¹ s⁻¹ | binding result [6]: no binding (tested: 300 nM) | binding result [7]: no binding (tested: 300 nM) | Kd [8]: 200 nM | koff [8]: 0.13 s⁻¹ | kon [8]: 650000 M⁻¹ s⁻¹
B1: anti-CD137 IgG1 with Fc variant G1m1 (antibody)
heavy: EVQLVQSGAEVKKPGESLRISCKGSGYSFSTYWISWVRQMPGKGLEWMGKIYPGDSYTNYSPSFQGQVTISADKSISTAYLQWSSLKASDTAMYYCARGYGIFDYWGQGTLVTVSSASTKGPSVFPLAPSSKSTSGGTAALGCLVKDYFPEPVTVSWNSGALTSGVHTFPAVLQSSGLYSLSSVVTVPSSSLGTQTYICNVNHKPSNTKVDKKVEPKSCDKTHTCPPCPAPELLSVFLFPPKPKDTLMISRTPEVTCVVVDVSHEDPEVKFNWYVDGVEVHNAKTKPREEQYNSTYRVVSVLTVLHQDWLNGKEYKCKVSNKALPAPIEKTISKAKGQPREPQVYTLPPSREEMTKNQVSLTCLVKGFYPSDIAVEWESNGQPENNYKTTPPVLDSDGSFFLYSKLTVDKSRWQQGNVFSCSVMHEALHNHYTQKSLSLSPGK
light: SYELTQPPSVSVSPGQTASITCSGDNIGDQYAHWYQQKPGQSPVLVIYQDKNRPSGIPERFSGSNSGNTATLTISGTQAMDEADYYCATYTGFGSLAVFGGGTKLTVLGQPKAAPSVTLFPPSSEELQANKATLVCLISDFYPGAVTVAWKADSSPVKAGVETTTPSKQSNNKYAASSYLSLTPEQWKSHRSYSCQVTHEGSTVEKTVAPTECS
notes: copies: 2 + 2

Kd [2]: 250 nM | koff [2]: 0.07 s⁻¹ | kon [2]: 280000 M⁻¹ s⁻¹ | Kd [3]: 160 nM | koff [3]: 0.033 s⁻¹ | kon [3]: 210000 M⁻¹ s⁻¹ | Kd [4]: 68 nM | koff [4]: 0.057 s⁻¹ | kon [4]: 840000 M⁻¹ s⁻¹ | Kd [5]: 10 nM | koff [5]: 0.0091 s⁻¹ | kon [5]: 900000 M⁻¹ s⁻¹ | Kd [6]: 160 nM | koff [6]: 0.099 s⁻¹ | kon [6]: 620000 M⁻¹ s⁻¹ | binding result [7]: no binding (tested: 300 nM) | Kd [8]: 2 nM | koff [8]: 0.00091 s⁻¹ | kon [8]: 440000 M⁻¹ s⁻¹
B2: anti-CD137 IgG2 with Fc variant G2m2 (antibody)
heavy: EVQLVQSGAEVKKPGESLRISCKGSGYSFSTYWISWVRQMPGKGLEWMGKIYPGDSYTNYSPSFQGQVTISADKSISTAYLQWSSLKASDTAMYYCARGYGIFDYWGQGTLVTVSSASTKGPSVFPLAPCSRSTSESTAALGCLVKDYFPEPVTVSWNSGALTSGVHTFPAVLQSSGLYSLSSVVTVPSSNFGTQTYTCNVDHKPSNTKVDKTVERKCCVECPPCPAPPFLGGPSVFLFPPKPKDTLMISRTPEVTCVVVDVSHEDPEVQFNWYVDGVEVHNAKTKPREEQFNSTFRVVSVLTVVHQDWLNGKEYKCKVSNKGLPAPIEKTISKTKGQPREPQVYTLPPSREEMTKNQVSLTCLVKGFYPSDIAVEWESNGQPENNYKTTPPMLDSDGSFFLYSKLTVDKSRWQQGNVFSCSVMHEALHNHYTQKSLSLSPGK
light: B1 light
notes: copies: 2 + 2

binding result [1]: no binding (tested: 10 ug/ml) | binding result [9]: no binding (tested: 10 ug/ml) | binding result [2]: no binding (tested: 300 nM) | binding result [3]: no binding (tested: 300 nM) | Kd [4]: 17000 nM | koff [4]: 0.35 s⁻¹ | kon [4]: 21000 M⁻¹ s⁻¹ | Kd [5]: 21 nM | koff [5]: 0.0088 s⁻¹ | kon [5]: 420000 M⁻¹ s⁻¹ | binding result [6]: no binding (tested: 300 nM) | binding result [7]: no binding (tested: 300 nM) | binding result [8]: no binding (tested: 300 nM)
B3: anti-CD137 IgG2 with Fc variant G2m10 (antibody)
heavy: EVQLVQSGAEVKKPGESLRISCKGSGYSFSTYWISWVRQMPGKGLEWMGKIYPGDSYTNYSPSFQGQVTISADKSISTAYLQWSSLKASDTAMYYCARGYGIFDYWGQGTLVTVSSASTKGPSVFPLAPCSRSTSESTAALGCLVKDYFPEPVTVSWNSGALTSGVHTFPAVLQSSGLYSLSSVVTVPSSNFGTQTYTCNVDHKPSNTKVDKTVERKCCVECPPCPAPEVSSVFLFPPKPKDTLMISRTPEVTCVVVDVSHEDPEVQFNWYVDGVEVHNAKTKPREEQFNSTFRVVSVLTVVHQDWLNGKEYKCKVSNKGFPAPIEKTISKTKGQPREPQVYTLPPSREEMTKNQVSLTCLVKGFYPSDIAVEWESNGQPENNYKTTPPMLDSDGSFFLYSKLTVDKSRWQQGNVFSCSVMHEALHNHYTQKSLSLSPGK
light: B1 light
notes: copies: 2 + 2
